Experiment [1] has as its target Factor VIII in a pool of normal human plasma (human), P00451. Briefly: cell-based or functional assay.
For experiment [2], the target named is recombinant FVIII (human), P00451. The experiment can be described thus: cell-based or functional assay.
The target of experiment [3] is T1, recombinant FVIII (human, UniProt P00451 20-2351).
T1 chain: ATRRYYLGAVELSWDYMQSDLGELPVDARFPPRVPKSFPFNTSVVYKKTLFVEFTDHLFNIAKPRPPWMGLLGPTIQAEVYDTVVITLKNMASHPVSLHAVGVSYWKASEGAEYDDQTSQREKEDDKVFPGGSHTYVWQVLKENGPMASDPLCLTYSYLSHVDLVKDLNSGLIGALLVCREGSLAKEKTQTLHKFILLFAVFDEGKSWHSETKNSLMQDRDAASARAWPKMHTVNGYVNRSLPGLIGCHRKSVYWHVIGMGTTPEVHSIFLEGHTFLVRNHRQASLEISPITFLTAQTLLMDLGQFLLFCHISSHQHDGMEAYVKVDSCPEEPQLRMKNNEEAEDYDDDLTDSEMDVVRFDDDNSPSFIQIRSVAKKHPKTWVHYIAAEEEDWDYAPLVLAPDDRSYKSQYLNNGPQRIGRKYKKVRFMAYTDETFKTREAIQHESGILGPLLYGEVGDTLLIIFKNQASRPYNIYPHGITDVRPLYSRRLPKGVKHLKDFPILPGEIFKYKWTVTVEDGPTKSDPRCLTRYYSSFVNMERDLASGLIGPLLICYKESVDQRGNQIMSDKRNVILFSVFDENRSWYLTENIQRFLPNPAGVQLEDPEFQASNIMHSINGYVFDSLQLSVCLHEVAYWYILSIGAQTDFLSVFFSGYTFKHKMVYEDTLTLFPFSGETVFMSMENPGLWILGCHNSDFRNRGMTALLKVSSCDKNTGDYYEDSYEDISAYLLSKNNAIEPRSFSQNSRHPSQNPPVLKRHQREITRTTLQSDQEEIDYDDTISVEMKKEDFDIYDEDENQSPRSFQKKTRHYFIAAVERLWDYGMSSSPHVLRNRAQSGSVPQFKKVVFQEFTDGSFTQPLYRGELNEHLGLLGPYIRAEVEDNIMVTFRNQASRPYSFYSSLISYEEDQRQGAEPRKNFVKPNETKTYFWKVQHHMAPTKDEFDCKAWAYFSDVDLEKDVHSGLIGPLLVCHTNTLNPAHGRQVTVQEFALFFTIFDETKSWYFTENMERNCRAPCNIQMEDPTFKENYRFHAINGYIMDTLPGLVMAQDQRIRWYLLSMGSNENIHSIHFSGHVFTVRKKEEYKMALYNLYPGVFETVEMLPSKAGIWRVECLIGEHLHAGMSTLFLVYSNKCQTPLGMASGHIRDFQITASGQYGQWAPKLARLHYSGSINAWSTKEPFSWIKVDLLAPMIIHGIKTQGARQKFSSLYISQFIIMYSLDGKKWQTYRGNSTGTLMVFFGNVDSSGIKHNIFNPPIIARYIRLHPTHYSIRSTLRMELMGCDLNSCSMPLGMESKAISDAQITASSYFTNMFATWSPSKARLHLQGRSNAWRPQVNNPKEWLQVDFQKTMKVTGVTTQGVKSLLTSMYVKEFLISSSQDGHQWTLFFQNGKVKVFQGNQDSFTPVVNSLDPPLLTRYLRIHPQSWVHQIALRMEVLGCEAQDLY
The experiment can be described thus: SPR (BIAcore), antibody immobilised on CM5 chip, FVIII infused.

The values that follow come from patent publication US20060292149A1 (LIFE SCIENCES RESEARCH PARTNERS, published 2006).

B1: RHD5 (human monoclonal antibody from the lymphoblastoid cell line RHD5) (antibody, V domains shown)
VH: QVQLVQSGAEVKKPGSSVMVSCKASGGTFSSFGISWVRQAPGQGLEWVGGIIPIFGTANTARNFQNRVTITADEFTSTAYIRLRSLRSEDTAVYYCVGGRDAYSFDGFDVWGQGTMVTVSSASTKGPSVFP
VL: SSGLTQPHSVSVSPGQTANITCSRDKLGHKFASWYQQKPGQSPALLIYQDSKRPSGIPERFSGSNSGNTATLTISGTQAMDEADYYCQAWDNTTAVFGGGTKLTVLSQPKAAPSVTLFPPS
B1 returned an inhibition of FVIII activity at a final concentration of RHD5 of 100 microgram/ml (plasma) in experiment [1] of 97%. Further, the inhibition of FVIII activity at a final concentration of RHD5 of 100 microgram/ml (full length recombinant FVIII) in experiment [2] was 98%.

B2: CHO-recKRIX-1 (recombinant Krix-1 produced in CHO cells) (antibody, V domains shown)
VH: QVQLVQSGAEVKKPGASVKVSCKTSGYNFTGYSASGHIFTAYSVHWVRQAPGQGLEWMGRINPNSGATDYAHKFQGRVTMSRDTSISTAYMELSRLTSDDTAMYYCARADNYFDIVTGYTSHYFDYWGRGTLVTVSS
VL: EIVLTQSPGTLSLSPGERATLSCRASQSVASAYLAWYQQKPGQAPRLLIYGASSRATDIPHRFSGSGSGTDFTLTISRLEPEDFAVYYCQQYGTSALLTFGGGTKVEIKR
modifications: N-linked glycosylation site at Asn47-Thr49, glycosylated as produced by CHO cells
notes: also called native CHO-rec-KRIX-1; rec-mAb Krix-1
As to B2, the dissociation constant (Kd) in experiment [3] came out at 0.14 nM.

B3: CHO-recKRIX-1Q (Krix-1 with Asn47 changed to Gln in the heavy chain, produced in CHO cells) (antibody, IgG4, V domains shown)
VH: QVQLVQSGAEVKKPGASVKVSCKTSGYQFTGYSASGHIFTAYSVHWVRQAPGQGLEWMGRINPNSGATDYAHKFQGRVTMSRDTSISTAYMELSRLTSDDTAMYYCARADNYFDIVTGYTSHYFDYWGRGTLVTVSS
VL: EIVLTQSPGTLSLSPGERATLSCRASQSVASAYLAWYQQKPGQAPRLLIYGASSRATDIPHRFSGSGSGTDFTLTISRLEPEDFAVYYCQQYGTSALLTFGGGTKVEIKR
notes: IgG4 kappa; The mutation disrupts the N-linked glycosylation site at Asn47-Thr49; also called Asn47Gln Krix-1; rec-mAb-KRIX-1Q
With B3, in experiment [3], the dissociation constant (Kd) came to 0.17 nM.

B4: CHO-recKRIX-1A (Krix-1 with Thr49 changed to Ala in the heavy chain, produced in CHO cells) (antibody, IgG4, V domains shown)
VH: QVQLVQSGAEVKKPGASVKVSCKTSGYNFAGYSASGHIFTAYSVHWVRQAPGQGLEWMGRINPNSGATDYAHKFQGRVTMSRDTSISTAYMELSRLTSDDTAMYYCARADNYFDIVTGYTSHYFDYWGRGTLVTVSS
VL: EIVLTQSPGTLSLSPGERATLSCRASQSVASAYLAWYQQKPGQAPRLLIYGASSRATDIPHRFSGSGSGTDFTLTISRLEPEDFAVYYCQQYGTSALLTFGGGTKVEIKR
notes: IgG4 kappa; The mutation disrupts the N-linked glycosylation site at Asn47-Thr49
In the case of B4, the equilibrium dissociation constant (Kd) in experiment [3] amounted to 0.13 nM.

B5: Krix-1 (human monoclonal antibody KRIX-1 produced in a lymphoblastoid cell line) (antibody, V domains shown)
VH: QVQLVQSGAEVKKPGASVKVSCKTSGYNFTGYSASGHIFTAYSVHWVRQAPGQGLEWMGRINPNSGATDYAHKFQGRVTMSRDTSISTAYMELSRLTSDDTAMYYCARADNYFDIVTGYTSHYFDYWGRGTLVTVSSASTKGPSVF
VL: EIVLTQSPGTLSLSPGERATLSCRASQSVASAYLAWYQQKPGQAPRLLIYGASSRATDIPHRFSGSGSGTDFTLTISRLEPEDFAVYYCQQYGTSALLTFGGGTKVEIKRTVAAPSVFIFPPS
modifications: here or on the partner: N-linked glycosylation site at Asn47-Thr49, glycosylated as produced by the human lymphoblastoid cell line
Consider B5, for which, in experiment [1], the inhibition of FVIII activity in plasma (Bethesda assay, chromogenic FVIII assay) was 90% and the inhibition of FVIII activity in plasma (chromogenic assay) is 90%.

B6: CHO-recKRIX-1 (recombinant Krix-1 produced in CHO cells) (antibody, V domains shown)
VH: QVQLVQSGAEVKKPGASVKVSCKTSGYNFTGYSASGHIFTAYSVHWVRQAPGQGLEWMGRINPNSGATDYAHKFQGRVTMSRDTSISTAYMELSRLTSDDTAMYYCARADNYFDIVTGYTSHYFDYWGRGTLVTVSSASTKGPSVF
VL: EIVLTQSPGTLSLSPGERATLSCRASQSVASAYLAWYQQKPGQAPRLLIYGASSRATDIPHRFSGSGSGTDFTLTISRLEPEDFAVYYCQQYGTSALLTFGGGTKVEIKRTVAAPSVFIFPPS
modifications: here or on the partner: N-linked glycosylation site at Asn47-Thr49, glycosylated as produced by CHO cells
As for B6, in experiment [1], the maximal inhibition of FVIII activity in large excess of antibody (chromogenic assay) was 75 to 85%.

B7: deglycosylated KRIX-1 (KRIX-1 treated with N-glycosidase-F) (antibody, IgG4, V domains shown)
VH: QVQLVQSGAEVKKPGASVKVSCKTSGYNFTGYSASGHIFTAYSVHWVRQAPGQGLEWMGRINPNSGATDYAHKFQGRVTMSRDTSISTAYMELSRLTSDDTAMYYCARADNYFDIVTGYTSHYFDYWGRGTLVTVSSASTKGPSVF
VL: EIVLTQSPGTLSLSPGERATLSCRASQSVASAYLAWYQQKPGQAPRLLIYGASSRATDIPHRFSGSGSGTDFTLTISRLEPEDFAVYYCQQYGTSALLTFGGGTKVEIKRTVAAPSVFIFPPS
modifications: here or on the partner: N-linked glycans removed by N-glycosidase-F (2 U/ml, 37 C, 72 h)
In experiment [1], B7 returned an inhibition of FVIII activity in plasma (chromogenic assay) of 50% and a maximal inhibition (plateau inhibition) of FVIII activity in plasma (Bethesda assay, chromogenic FVIII assay) of 50%.
